Source: patent publication US20100048468A1 (Amgen, published 2010)
Non-standard residues stand in square brackets, D forms with d. Primed or numbered codes have the meaning given here. No end group written: not given here. Aib′ = alpha aminobutyric acid (source's wording)

Target: T1, human GLP-1 receptor (human, UniProt P43220 24-463)
T1 construct: whole, on cells
Assay: 125I-GLP-1 displacement, membranes of CHOK1 cells expressing human GLP-1 receptor
Experimental: (§1) Membrane Preparation. […] Cells were sedimented at 1500 rpm for 10 minutes. The resulting pellets were homogenized in 15 mls of ice cold sucrose buffer (25 mM Tris-HCl, 0.32 M Sucrose, 0.25 g/L, sodium azide, pH 7.4) with a motorized, glass fitted, Teflon homogenizer. The homogenate was centrifuged at 48,000×g at 4° C. for 10 minutes, resuspended in 25 ml assay buffer (50 mM Tris-HCl, 5 mM MgCl₂, 10 mg/ml protease-free BSA, 0.1 mg/ml STI, and 0.1 mg/ml Pefabloc, pH 7.4) with a Tissue-Tearor (Biospec Products), then centrifuged again at 48,000×g for 10 minutes. The pellets were homogenized for a third time in 15 ml assay buffer using the Tissue-Tearor and again centrifuged at 48,000×g for 10 minutes. The resulting pellet was resuspended in assay buffer at a wet weight concentration of 4 mg/ml.
(§2) Ligand Binding Assay. Binding assays were performed in 96-well U-bottom plates. […] The reaction was terminated by rapid filtration through Unfilter-96 GF/C glass fiber filter plates (FilterMate 196 Packard Harvester, PerkinElmer, Shelton, Conn.) pre-soaked in 0.5% polyethylenimine, followed by three washes with 300 μl of cold 50 mM Tris-HCl, pH 7.4. Bound radioactivity was determined using a TopCount microplate scintillation and luminescence counter (Packard Instrument Company, PerkinElmer, Shelton, Conn.). Nonlinear regression analyses of resulting concentration curves were performed using GraphPad Prism (GraphPad Software, Inc., San Diego, Calif.).

Row | Binder | IC50
1 | MRHAEGTFTSDVSSYLEGQAAKEFIAWLVKGR (ends and bridges not checked, Not pegylated) [MR-GLP1 (SEQ ID NO: 254)] | 590 nM
2 | MDHAEGTFTSDVSSYLEGQAAKEFIAWLVKGR (Not pegylated) [MD-GLP1 (SEQ ID NO: 261)] | 82 nM
3 | MKHAEGTFTSDVSSYLEGQAAKEFIAWLVKGR (not fully specified; ends and bridges not checked, Not pegylated) [MK-GLP1 (SEQ ID NO: 255)] | 760 nM
4 | MLHAEGTFTSDVSSYLEGQAAKEFIAWLVKGR (ends and bridges not checked, Not pegylated) [ML-GLP1 (SEQ ID NO: 262)] | 160 nM
5 | MEHAEGTFTSDVSSYLEGQAAKEFIAWLVKGR (Not pegylated) [ME-GLP1 (SEQ ID NO: 264)] | 95 nM
6 | MHHHAEGTFTSDVSSYLEGQAAKEFIAWLVKGR (ends and bridges not checked, Not pegylated) [MHH-GLP1 (SEQ ID NO: 258)] | 350 nM

Target: T2, mouse GLP-1 receptor (mouse, UniProt O35659 22-463)
T2 sequence (looked up): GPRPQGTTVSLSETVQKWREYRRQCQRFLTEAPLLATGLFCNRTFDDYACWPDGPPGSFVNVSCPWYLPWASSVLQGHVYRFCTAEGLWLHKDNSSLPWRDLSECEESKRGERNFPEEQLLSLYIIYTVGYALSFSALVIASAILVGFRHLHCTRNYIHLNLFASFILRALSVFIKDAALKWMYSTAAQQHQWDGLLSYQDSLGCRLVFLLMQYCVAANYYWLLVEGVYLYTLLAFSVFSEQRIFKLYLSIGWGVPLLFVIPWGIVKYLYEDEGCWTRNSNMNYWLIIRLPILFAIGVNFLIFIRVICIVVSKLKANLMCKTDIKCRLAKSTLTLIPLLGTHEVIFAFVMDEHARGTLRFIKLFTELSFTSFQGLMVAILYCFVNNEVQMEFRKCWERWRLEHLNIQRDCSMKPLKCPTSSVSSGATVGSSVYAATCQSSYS
Assay: cell-based or functional assay

Row | Binder | EC50 mouse
7 | HGEGTFTSDVSSYLE[Aib′]QAAKEFIAWLVKGRGC(mPEG‑maleimide 10 kDa)SG-NH2 [cgGLP-26 (SEQ ID NO: 22 + 10k PEG)] | 0.9 nM
8 | HGEGTFTSDVSSYLE[Aib′]QAAKEFIAWLVKGRGC(mPEG‑maleimide 20 kDa)SG (also called cgGLP-19) [mgGLP19 & cgGLP- (SEQ ID NO: 21 + 20k PEG)] | 4 nM
9 | HGEGTFTSDVSSYLE[Aib′]QAAKEFIAWLVKGRGC(mPEG‑maleimide 20 kDa)A-NH2 (also called cgGLP30) [mgGLP32 & mgGLP-20 (SEQ ID NO: 18 + 20k PEG)] | 0.84 nM
10 | HGEGTFTSDVSSYLE[Aib′]QAAKEFIAWLVKGRGC(mPEG‑maleimide 20 kDa)G-NH2 [mgGLP-16 (SEQ ID NO: 20 + 20k PEG)] | 1.6 nM
11 | HGEGTFTSDVSSYLE[Aib′]QAAKEFIAWLVKGRGC(mPEG‑maleimide 20 kDa)SG-NH2 [cgGLP-24 cgGLP-27, mgGLP-22, mgGLP-33 & mgGLP-27 (SEQ ID NO: 22 + 20k PEG)] | 0.84 nM
12 | HGEGTFTSDVSSYLE[Aib′]QAAKEFIAWLVKGRG-NH2 [HGEGT FTSDV SSYLE [Aib]QAAK EFIAW LVKGR G-AMIDE (SEQ ID NO: 15)] | 0.12 nM
13 | HGEGTFTSDVSSYLE[Aib′]QAAKEFIAWLVKGRGC(mPEG‑maleimide 5 kDa)SG-NH2 (also called cgGLP-25) [cpGLP-25 (SEQ ID NO: 22 + 5k PEG)] | 0.9 nM

Target: T1, human GLP-1 receptor
Assay: cell-based or functional assay

Row | Binder | EC50 human
14 | HGEGTFTSDVSSYLE[Aib′]QAAKEFIAWLVKGRGC(mPEG‑maleimide 10 kDa)SG-NH2 [cgGLP-26 (SEQ ID NO: 22 + 10k PEG)] | 59 pM
15 | HGEGTFTSDVSSYLE[Aib′]QAAKEFIAWLVKGRGC(mPEG‑maleimide 20 kDa)SG (also called cgGLP-19) [mgGLP19 & cgGLP- (SEQ ID NO: 21 + 20k PEG)] | 0.32 pM
16 | HGEGTFTSDVSSYLE[Aib′]QAAKEFIAWLVKGRGC(mPEG‑maleimide 20 kDa)A-NH2 (also called cgGLP30) [mgGLP32 & mgGLP-20 (SEQ ID NO: 18 + 20k PEG)] | 130 pM
17 | HGEGTFTSDVSSYLE[Aib′]QAAKEFIAWLVKGRGC(mPEG‑maleimide 20 kDa)G-NH2 [mgGLP-16 (SEQ ID NO: 20 + 20k PEG)] | 200 pM
18 | HGEGTFTSDVSSYLE[Aib′]QAAKEFIAWLVKGRGC(mPEG‑maleimide 20 kDa)SG-NH2 [cgGLP-24 cgGLP-27, mgGLP-22, mgGLP-33 & mgGLP-27 (SEQ ID NO: 22 + 20k PEG)] | 100 pM
19 | HGEGTFTSDVSSYLE[Aib′]QAAKEFIAWLVKGRG-NH2 [HGEGT FTSDV SSYLE [Aib]QAAK EFIAW LVKGR G-AMIDE (SEQ ID NO: 15)] | 27 pM
20 | HGEGTFTSDVSSYLE[Aib′]QAAKEFIAWLVKGRGC(mPEG‑maleimide 5 kDa)SG-NH2 (also called cgGLP-25) [cpGLP-25 (SEQ ID NO: 22 + 5k PEG)] | 39 pM

Target: T2, mouse GLP-1 receptor
Assay: cell-based or functional assay
Remark: another data set of the same source

Row | Binder | EC50 mouse
21 | HGEGTFTSDVSSYLEGC(PEG 20 kDa)AAKEFIAWLKNGGPSSGAPPPS [cgGLP-13 (SEQ ID NO: 8 + 20k PEG monomer)] | 3 nM

Target: T2, mouse GLP-1 receptor
Assay: cell-based or functional assay
Remark: another data set of the same source

Row | Binder | EC50 mouse
22 | MHAEGTFTSDVSSYLEGQAAKEFIAWLVKGR (Not pegylated) [M-GLP1 (SEQ ID NO: 256)] | 0.5 nM
23 | MRHAEGTFTSDVSSYLEGQAAKEFIAWLVKGR (ends and bridges not checked, Not pegylated) [MR-GLP1 (SEQ ID NO: 254)] | 41 nM
24 | MDHAEGTFTSDVSSYLEGQAAKEFIAWLVKGR (Not pegylated) [MD-GLP1 (SEQ ID NO: 261)] | 2 nM
25 | MKHAEGTFTSDVSSYLEGQAAKEFIAWLVKGR (not fully specified; ends and bridges not checked, Not pegylated) [MK-GLP1 (SEQ ID NO: 255)] | 12 nM
26 | MLHAEGTFTSDVSSYLEGQAAKEFIAWLVKGR (ends and bridges not checked, Not pegylated) [ML-GLP1 (SEQ ID NO: 262)] | 6 nM
27 | MEHAEGTFTSDVSSYLEGQAAKEFIAWLVKGR (Not pegylated) [ME-GLP1 (SEQ ID NO: 264)] | 4 nM
28 | MHHHAEGTFTSDVSSYLEGQAAKEFIAWLVKGR (ends and bridges not checked, Not pegylated) [MHH-GLP1 (SEQ ID NO: 258)] | 5 nM

Target: T1, human GLP-1 receptor
Assay: cell-based or functional assay
Remark: another data set of the same source

Row | Binder | EC50 human
29 | MHAEGTFTSDVSSYLEGQAAKEFIAWLVKGR (Not pegylated) [M-GLP1 (SEQ ID NO: 256)] | 0.086 nM
30 | MRHAEGTFTSDVSSYLEGQAAKEFIAWLVKGR (ends and bridges not checked, Not pegylated) [MR-GLP1 (SEQ ID NO: 254)] | 8 nM
31 | MDHAEGTFTSDVSSYLEGQAAKEFIAWLVKGR (Not pegylated) [MD-GLP1 (SEQ ID NO: 261)] | 0.3 nM
32 | MKHAEGTFTSDVSSYLEGQAAKEFIAWLVKGR (not fully specified; ends and bridges not checked, Not pegylated) [MK-GLP1 (SEQ ID NO: 255)] | 4 nM
33 | MLHAEGTFTSDVSSYLEGQAAKEFIAWLVKGR (ends and bridges not checked, Not pegylated) [ML-GLP1 (SEQ ID NO: 262)] | 0.7 nM
34 | MEHAEGTFTSDVSSYLEGQAAKEFIAWLVKGR (Not pegylated) [ME-GLP1 (SEQ ID NO: 264)] | 1 nM
35 | MHHHAEGTFTSDVSSYLEGQAAKEFIAWLVKGR (ends and bridges not checked, Not pegylated) [MHH-GLP1 (SEQ ID NO: 258)] | 1 nM

Target: T1, human GLP-1 receptor
Assay: 125I-GLP-1 displacement, membranes of CHOK1 cells expressing human GLP-1 receptor
Remark: another data set of the same source
Experimental: as §1
as §2, with “Calif.). […]” for “Calif.).”

Row | Binder | IC50
36 | HGEGTFTSDVSSYLE[Aib′]QAAKEFIAWLVKGRGC(mPEG‑maleimide 10 kDa)SG-NH2 [cgGLP-26 (SEQ ID NO: 22 + 10k PEG)] | 23 nM
37 | HGEGTFTSDVSSYLE[Aib′]QAAKEFIAWLVKGRGC(mPEG‑maleimide 20 kDa)SG (also called cgGLP-19) [mgGLP19 & cgGLP- (SEQ ID NO: 21 + 20k PEG)] | 230 nM
38 | HGEGTFTSDVSSYLE[Aib′]QAAKEFIAWLVKGRGC(mPEG‑maleimide 20 kDa)A-NH2 (also called cgGLP30) [mgGLP32 & mgGLP-20 (SEQ ID NO: 18 + 20k PEG)] | 56 nM
39 | HGEGTFTSDVSSYLE[Aib′]QAAKEFIAWLVKGRGC(mPEG‑maleimide 20 kDa)G-NH2 [mgGLP-16 (SEQ ID NO: 20 + 20k PEG)] | 50 nM
40 | HGEGTFTSDVSSYLE[Aib′]QAAKEFIAWLVKGRGC(mPEG‑maleimide 20 kDa)SG-NH2 [cgGLP-24 cgGLP-27, mgGLP-22, mgGLP-33 & mgGLP-27 (SEQ ID NO: 22 + 20k PEG)] | 47 nM
41 | HGEGTFTSDVSSYLE[Aib′]QAAKEFIAWLVKGRG-NH2 [HGEGT FTSDV SSYLE [Aib]QAAK EFIAW LVKGR G-AMIDE (SEQ ID NO: 15)] | 3.5 nM
42 | HGEGTFTSDVSSYLE[Aib′]QAAKEFIAWLVKGRGC(mPEG‑maleimide 5 kDa)SG-NH2 (also called cgGLP-25) [cpGLP-25 (SEQ ID NO: 22 + 5k PEG)] | 15 nM
